The source of these data is US10465009B2, “BCMA antigen binding proteins” (Amgen Inc., priority 2012, dated 2019).

Entries after “also recorded” stand apart in the source; their conditions may differ.

T1: [6x Histidine-SUMO]-huBCMA (SEQ ID NO:350) and carboxy terminal clipped forms (Homo sapiens, UniProt Q02223)
T1 construct: GGS-G3 linker + Avi tag (lost in the clipped species) (C); made in house
T1 sequence (Q02223 5-54): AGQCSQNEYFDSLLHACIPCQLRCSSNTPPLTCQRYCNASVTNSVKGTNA

B1: 29C12: second campaign anti-huBCMA mAb, Vh SEQ ID NO:220, Vl SEQ ID NO:254 (antibody, V domains shown)
VH: EVQLLESGGALVQPGGSLRLSCAASGFTFSSYAMNWVRQAPGKGLEWVSAISVGGDTYYADSVKGRFTISRDNSKNTLYLQMNSLRAEDTAVYYCAKDQVTMVRGVWYYYGLDVWGQGTTVTVSS
VL: DIVMIQSPLSLPVTPGEPASISCRSSQSLLHSNGNNYLDWYLQKPGQSPHLLISLGSNRTSGVPDRFSGSGSGTDFTLKISRVEAEDVGVYYCMQALQPPRRFGQGTKLEIKR
B2: 29C12.1 ADC (conjugate)
VH: EVQLLESGGALVQPGGSLRLSCAASGFTFSSYAMNWVRQAPGKGLEWVSAISVGGDTYYADSVKGRFTISRDNSKNTLYLQMNSLRAEDTAVYYCAKDQVTMVRGVWYYYGLDVWGQGTTVTVSS
VL: DIVMIQSPLSLPVTPGEPASISCRSSQSLLHSNGNNYLDWYLQKPGQSPHLLISLGSNRTSGVPDRFSGSGSGTDFTLKISRVEAEDVGVYYCMQALQPPRRFGQGTKLEIKR
B3: 33C7.1 ADC (conjugate)
VH: EVQLLESGGALVQPGGSLRLSCAASGFTFSSYAMNWVRQAPGKGLEWVSAISVGGDTYYADSVKGRFTISRDNSKNTLYLHVNSLSAEDSAVYYCAKDQVTLVRGVWYYYGLDVWGQGTTVTVSS
VL: VIVLIQSPLSLPVTPGEPASISCRSSQSLLHSNGNNYLDWYLQKPGQSPHLLISLGSNRTSGVPDRFSGSGSGTDFTLKISRVEAEDVGFYYCMQALQPPRRFGQGTKLEIKR
B4: 35D2.1 ADC (conjugate)
VH: EVQLLESGGALVQPGGSLRLSCAASGFTFSSYAMNWVRQAPGKGLEWVSAISVGGGTYYADSVKGRFTISRDNSKNTLYLHVNSLRAEDTAVYYCAKDQVTMVRGVWYYYGLDVWGQGTTVTVSS
VL: VIVLIQSPLSLPVTPGEPASISCRSSQSLLHSNGNNYLDWYLQKPGQSPHLLISLGSNRTSGVPDRFSGSGSGTDFTLKISRVEAEDVGFYYCMQALQPPRRFGQGTKLEIKR
B5: 32B5-MCC-DM1 (conjugate)
VH: EVQLLESGGALVQPGGSLRLSCAASGFTFSSYAMNWVRQAPGKGLEWVSAISVGGDTYYADSVKGRFTISRDNSKNTLYLHVNSLSAEDSAVYYCAKDQVTLVRGVWYYYGLDVWGQGTTVTVSS
VL: VIVLIQSPLSLPVTPGEPASISCRSSQSLLHSNGNNYLDWYLQKPGQSPHLLISLGSNRTSGVPDRFSGSGSGTDFTLKISRVEAEDVGFYYCMQALQPPRRFGQGTKLEIKR
B6: 37B2.1 ADC (conjugate)
VH: EVQLLESGGALVQPGGSLRLSCAASGFTFSNYAMNWVRQAPGKGLEWVSAISVGGDTYYADSVKGRFTISRDNSKNTLYLHVNSLSAEDSAVYYCAKDQVTLVRGVWYYYGLDVWGQGTTVTVSS
VL: VIVLIQSPLSLPVTPGEPASISCRSSQSLLHSNGNNYLDWYLQKPGQSPHLLISLGSNRTSGVPDRFSGSGSGTDFTLKISRVEAEDVGFYYCMQALQPPRRFGQGTKLEIKR
B7: 29C12-MCC-DM1 (conjugate)
VH: EVQLLESGGALVQPGGSLRLSCAASGFTFSSYAMNWVRQAPGKGLEWVSAISVGGDTYYADSVKGRFTISRDNSKNTLYLQMNSLRAEDTAVYYCAKDQVTMVRGVWYYYGLDVWGQGTTVTVSS
VL: DIVMIQSPLSLPVTPGEPASISCRSSQSLLHSNGNNYLDWYLQKPGQSPHLLISLGSNRTSGVPDRFSGSGSGTDFTLKISRVEAEDVGVYYCMQALQPPRRFGQGTKLEIKR
B8: 32B5.1 ADC (conjugate)
VH: EVQLLESGGALVQPGGSLRLSCAASGFTFSSYAMNWVRQAPGKGLEWVSAISVGGDTYYADSVKGRFTISRDNSKNTLYLHVNSLSAEDSAVYYCAKDQVTLVRGVWYYYGLDVWGQGTTVTVSS
VL: VIVLIQSPLSLPVTPGEPASISCRSSQSLLHSNGNNYLDWYLQKPGQSPHLLISLGSNRTSGVPDRFSGSGSGTDFTLKISRVEAEDVGFYYCMQALQPPRRFGQGTKLEIKR
B9: 40D7.1 ADC (conjugate)
VH: EVQLLESGGALVQPGGSLRLSCAASGFTFSSYAMNWVRQAPGKGLEWVSAISVGGDTYYADSVKGRFTISRDNSKNTLYLQMNSLRAEDTAVYYCAKDQVTMVRGVWYYYGLDVWGQGTTVTVSS
VL: DIVMIQSPLSLPVTPGEPASISCRSSQSLLHSNGNNFLDWYLQKPGQSPHLLISLGSNRTSGVPDRLSGSGSGTDFTLKISRVEAEDVGIYYCMQALRPPRRFGQGTKLEIKR

For one assay, the target named is T1, [6x Histidine-SUMO]-huBCMA (SEQ ID NO:350) and carboxy terminal clipped forms. In words: Size exclusion chromatography and LC/MS of antibody complexes with Sumo-huBCMA and its clipped forms. Format: binding. The settings on record: SEC. An excerpt: To determine which forms of 6×His-SUMO-huBCMA were bound to the anti-huBCMA antibodies, the SEC fractions were isolated and analyzed. Carboxy-terminus fragments of the extracellular domain of human BCMA were generated as clipped forms from the rhuBCMA fusion protein (6×His::Sumo::huBCMA(aa 5-51)::GGS::G3::Avi) of SEQ ID NO:350, as shown in FIG. 45.
A Superdex 200™ 10/30 cm SEC column (GE Healthcare Life Sciences) was used according to the manufacturer's recommendations and run in phosphate buffered saline (PBS). Incubations of antibody with excess levels of sumoBCMA were performed at room temperature for at least 30 minutes.
A Superdex 200™ 10/30 cm SEC column (GE Healthcare Life Sciences) was used according to the manufacturer's recommended condision and run in phosphate buffered saline (PBS). Incubations of antibody with excess levels of sumoBCMA were performed at room temperature for at least 30 minutes.
5 ug of total proteins were reduced in 50 mM Tris/4 M guanidine/9 mM DTT, pH 8.0 at 55° C. for 15 min, and analyzed in Agilent LCTOF system using a Vydac C8 column, 2.1 mm ID×150 mm, […] particle size. […] TOF MS conditions included capillary voltage of 4000 V, drying gas flow at 10 L/min, dry gas temperature at 300° C., nebulizer gas flow at 40 L/min, and fragmentor voltage of 300 V. MS data was analyzed in Agilent MassHunter™ Qualitative Analysis program.
As for B1, the “binding to full-length and truncated forms of huBCMA” value was “bound full-length and truncated forms of BCMA; also recorded: bound all forms of human BCMA”.

For a further assay, the system named is H929 cells. Description: CellTiter-Glo Luminescent Cell Viability Assay, H929.
Settings: not given
Format: cell-based, human. How it is done:
The ADCs were tested for the ability to target and kill BCMA-expressing myeloma cells. The CellTiter-Glo® Luminescent Cell Viability Assay is a homogeneous method to determine the number of viable cells in culture based on quantitation of the ATP present, which signals the presence of metabolically active cells. The CellTiter-Glo® Assay is applicable to cytotoxicity assays (see http://www.promega.com/products/cell-health-assays/cell-viability-assays/celltiterglo-luminescent-cell-viability-assay/ for more information). The cell viability assay was used to assess the relative killing capacity of various ADCs on various multiple myeloma cell lines and B-cell lines. The protocol provided in the Cell Titer-Glo kit (Promega G7572) was followed. In short, 5×10^3 target cells in 90 ul RPMI 1640, 10% FBS were aliquoted into clear, flat bottom, white walled 96 well plates (Costar #3903). The ADCs were diluted into a 10× stock to create 500 nM maytansine drug equivalents. Each ADC was serially diluted in 2-fold dilutions in RPMI 1640, 10% FBS starting with 500 nM stock. 10 ul of the 10×ADC dilution series was added to the 90 ul of cells in media (triplicate wells). The highest concentration of ADC was approximately 50 nM maytansine drug equivalents, and the lowest concentration of ADC was approximately 50 pM maytansine drug equivalents. An isotype control ADC (an anti-streptavidin huIgG1 conjugated to MCC-DM1) was included, as well as a media-only control. The plates were incubated at 37° C., 5% CO2 for 96 hours. After incubation, 100 ul of the Substrate Solution (Promega G7572) was added to each well. Luminescence was read on an EnVision™ Multilabel reader (PerkinElmer) or Analyst HT plate reader (LJL Biosciences). The data was analyzed and graphed using GraphPad Prism™ to determine the relative efficacy of the ADCs on various cancer cell lines.
The 2A1CV5-MCC-DM1, 32B5-MCC-DM1 and 29C12-MCC-DM1 ADCs were tested for the ability to target and kill BCMA-expressing myeloma cells (H929). The CellTiter-Glo® Luminescent Cell Viability Assay is a homogeneous method to determine the number of viable cells in culture based on quantitation of the ATP present, which signals the presence of metabolically active cells. The CellTiter-Glo® Assay is applicable to cytotoxicity assays (see http://www.promega.com/products/cell-health-assays/cell-viability-assays/celltiter_glo-luminescent-cell-viability-assay/ for more information). The cell viability assay was used to assess the relative killing capacity of various ADCs on various multiple myeloma cell lines and B-cell lines. The protocol provided in the Cell Titer-Glo kit (Promega G7572) was followed. In short, 5×10^3 target cells in 90 ul RPMI 1640, 10% FBS were aliquoted into clear, flat bottom, white walled 96 well plates (Costar #3903). The ADCs were diluted into a 10× stock to create 500 nM maytansine drug equivalents. Each ADC was serially diluted in 2-fold dilutions in RPMI 1640, 10% FBS starting with 500 nM stock. 10 ul of the 10×ADC dilution series was added to the 90 ul of cells in media (triplicate wells). The highest concentration of ADC was approximately 50 nM maytansine drug equivalents, and the lowest concentration of ADC was approximately 50 pM maytansine drug equivalents. An isotype control ADC (an anti-streptavidin huIgG1 conjugated to MCC-DM1) was included, as well as a media-only control. The plates were incubated at 37° C., 5% CO2 for 96 hours. After incubation, 100 ul of the Substrate Solution (Promega G7572) was added to each well. Luminescence was read on an EnVision™ Multilabel reader (PerkinElmer) or Analyst HT plate reader (LJL Biosciences). The data was analyzed and graphed using GraphPad Prism™ to determine the relative efficacy of the ADCs on various cancer cell lines.
(In ATP-based viability assays light output follows the ATP content of the culture.)
As to B2, the “killing of huBCMA-expressing myeloma cells (H929)” value was “selectively killed huBCMA-expressing target cells; also recorded: showed cytotoxicity”.
Turning to B3, the “killing of huBCMA-expressing myeloma cells (H929)” value was “selectively killed huBCMA-expressing target cells; also recorded: showed cytotoxicity”.
Same read-out and setting: the same measure for B4: “selectively killed huBCMA-expressing target cells; also recorded: showed cytotoxicity”; for B5: “able to target and kill BCMA-expressing myeloma cells (H929)”.
The same measure, in the same setting: the same measure for B6: “selectively killed huBCMA-expressing target cells; also recorded: showed cytotoxicity”.
The same measure, in the same setting: as for B7, the entry is “able to target and kill BCMA-expressing myeloma cells (H929)”; as for B8, “selectively killed huBCMA-expressing target cells; also recorded: showed cytotoxicity”; as for B9, “selectively killed huBCMA-expressing target cells; also recorded: showed cytotoxicity”.

In a further assay the test system is various cell lines. Description: Cell viability control: cell lines exposed to free DM1. The format is cell-based, human. To be noted: FIG. 13. The method, then: The ADCs were tested for the ability to target and kill BCMA-expressing myeloma cells. The CellTiter-Glo® Luminescent Cell Viability Assay is a homogeneous method to determine the number of viable cells in culture based on quantitation of the ATP present, which signals the presence of metabolically active cells. The CellTiter-Glo® Assay is applicable to cytotoxicity assays (see http://www.promega.com/products/cell-health-assays/cell-viability-assays/celltiterglo-luminescent-cell-viability-assay/ for more information). The cell viability assay was used to assess the relative killing capacity of various ADCs on various multiple myeloma cell lines and B-cell lines. The protocol provided in the Cell Titer-Glo kit (Promega G7572) was followed. In short, 5×10^3 target cells in 90 ul RPMI 1640, 10% FBS were aliquoted into clear, flat bottom, white walled 96 well plates (Costar #3903). The ADCs were diluted into a 10× stock to create 500 nM maytansine drug equivalents. Each ADC was serially diluted in 2-fold dilutions in RPMI 1640, 10% FBS starting with 500 nM stock. […] Luminescence was read on an EnVision™ Multilabel reader (PerkinElmer) or Analyst HT plate reader (LJL Biosciences). The data was analyzed and graphed using GraphPad Prism™ to determine the relative efficacy of the ADCs on various cancer cell lines. […]
Take `COc1cc2cc(c1Cl)N(C)C(=O)C[C@H](OC(=O)[C@H](C)N(C)C(=O)CCS)[C@]1(C)O[C@H]1[C@H](C)[C@@H]1C[C@@](O)(NC(=O)O1)[C@H](OC)/C=C/C=C(\C)C2` [DM1]: the “killing of cell lines by free drug” value is listed as “killed by free DM1”.
